# Source: patent US20220289843A1 (ELPIS BIOPHARMACEUTICALS, published 2022)
# T1: full-length human CD19 fused with flag and Myc tags at the C-terminus, expressed on HEK293 or K562 cells (human, UniProt P15391 20-556)
# T1 construct: whole, on cells; also called CD19/HEK293 cells; CD19-expressing HEK293 cells; not shown: C-terminal flag and Myc tags (pCMV6-Entry vector)
# T1 sequence (looked up): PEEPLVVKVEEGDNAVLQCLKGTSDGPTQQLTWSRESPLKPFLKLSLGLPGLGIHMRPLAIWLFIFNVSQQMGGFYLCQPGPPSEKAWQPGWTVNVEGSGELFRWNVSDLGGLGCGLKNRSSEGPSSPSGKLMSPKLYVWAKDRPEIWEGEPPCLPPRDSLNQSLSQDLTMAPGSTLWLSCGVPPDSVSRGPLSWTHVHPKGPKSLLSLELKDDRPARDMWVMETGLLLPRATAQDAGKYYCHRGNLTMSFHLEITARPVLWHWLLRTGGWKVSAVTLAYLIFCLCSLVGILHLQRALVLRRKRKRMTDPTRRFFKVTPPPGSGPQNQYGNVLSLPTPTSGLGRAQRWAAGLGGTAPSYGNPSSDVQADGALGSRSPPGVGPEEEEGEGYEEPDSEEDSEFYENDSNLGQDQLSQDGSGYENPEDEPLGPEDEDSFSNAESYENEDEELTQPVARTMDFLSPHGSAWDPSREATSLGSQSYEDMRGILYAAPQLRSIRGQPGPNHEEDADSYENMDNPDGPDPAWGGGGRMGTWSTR
# T2: endogenous CD19 expressed on cell surface (Daudi cells, Raji cells, DLBCL tissue) (UniProt P15391 20-556, limits assumed)
# T2 construct: whole, on cells; also called CD19+ Raji cells; CD19-positive DLBCL tissue
# T2 sequence (looked up): T1 sequence (looked up)
# B1: 2018EP187-A12 (scFv, VH-VL orientation) (scFv)
# scFv: QVQLQQWGAGLLKPSETLSLTCAVYGGSFSGYYWTWIRQPPGKGLEWIGEINHGGSSNYNPSLKSRVTISVDTSKKQFSLNLNSVTAADTAVYYCARGLGYRSGWYEVENAFDIWGQGTMVTVSSGGGGSGGGGSGGGGSQPVLTQPPSVSVAPGQTARITCGGNKIESRSVHWYQQKPGQAPVLVVYDDGARPSGIPERLSGSNSGDTATLTISRVEPGDEADYYCQVWDGSSVIFGGGTKLTVL
# notes: Purified from E. coli periplasmic expression (pET22b); fully human scFv from mRNA display; also called 2018EP187-Al2; not shown: C-terminal flag and 6xHIS tag
# B2: BiTE EP381 (bispecific antibody)
# chain: QVQLQQWGAGLLKPSETLSLTCAVYGGSFSGYYWTWIRQPPGKGLEWIGEINHGGSSNYNPSLKSRVTISVDTSKKQFSLNLNSVTAADTAVYYCARGLGYRSGWYEVENAFDIWGQGTMVTVSSGGGGSGGGGSGGGGSQPVLTQPPSVSVAPGQTARITCGGNKIESRSVHWYQQKPGQAPVLVVYDDGARPSGIPERLSGSNSGDTATLTISRVEPGDEADYYCQVWDGSSVIFGGGTKLTVLGGGGSEVQLVESGGGLVQPGGSLRLSCAASGFTFSTYAMNWVRQAPGKGLEWVGRIRSKYNNYATYYADSVKGRFTISRDDSKNTLYLQMNSLRAEDTAVYYCVRHGNFGDSYVSWFAYWGQGTLVTVSSGGGGSGGGGSGGGGSGGGGSQAVVTQEPSLTVSPGGTVTLTCGSSTGAVTTSNYANWVQQKPGKSPRGLIGGTNKRAPGVPARFSGSLLGGKAALTISGAQPEDEADYYCALWYSNHWVFGGGTKLTVLHHHHHH
# notes: also called anti-CD19/anti-CD3 BiTE antibody
# B3: BiTE EP382 (bispecific antibody)
# chain: QVQLVQSGGGVVQPGKSLRLSCAASGFPFSSYTMHWVRQPPGEGLEWVALISYDGRNLYYADSVKGRFTISRDNSYNSLYLQLSGLRAEDTALYYCARDINRDHFYGMDLWGPGTTVTVSSGGGGSGGGGSGGGGSSYELTQPPSVSVAPGQTARIPCGGTNIGSKGVHWYQQKPGQAPVLVIYYDHSRPSGIPERFSGSNSGNTAALTISRVEAGDEADYYCQVWEGTSDHPVFGGGTKLTVLGGGGSEVQLVESGGGLVQPGGSLRLSCAASGFTFSTYAMNWVRQAPGKGLEWVGRIRSKYNNYATYYADSVKGRFTISRDDSKNTLYLQMNSLRAEDTAVYYCVRHGNFGDSYVSWFAYWGQGTLVTVSSGGGGSGGGGSGGGGSGGGGSQAVVTQEPSLTVSPGGTVTLTCGSSTGAVTTSNYANWVQQKPGKSPRGLIGGTNKRAPGVPARFSGSLLGGKAALTISGAQPEDEADYYCALWYSNHWVFGGGTKLTVLHHHHHH
# notes: as for B2
# B4: BiTE EP383 (bispecific antibody)
# chain: EVQLVESGAEVKKPGASVKVSCKASGYTFTSYYMHWVRQAPGQGLEWMGIINPSGGSTSYAQKFQGRVTITADESTSTAYMELSSLRSEDTAVYYCAREGGYKDFDYWGQGTLVTVSSGGGGSGGGGSGGGGSDIVMTQSPSSLSASVGDRVTVTCRASQSIDTYLNWYQQKPGKAPKLLIYTASTLQSGVPSRFSGSGSGTDFTLTISSLQPEDFATYYCQQSYSAPRTFGQGTKVEIKGGGGSEVQLVESGGGLVQPGGSLRLSCAASGFTFSTYAMNWVRQAPGKGLEWVGRIRSKYNNYATYYADSVKGRFTISRDDSKNTLYLQMNSLRAEDTAVYYCVRHGNFGDSYVSWFAYWGQGTLVTVSSGGGGSGGGGSGGGGSGGGGSQAVVTQEPSLTVSPGGTVTLTCGSSTGAVTTSNYANWVQQKPGKSPRGLIGGTNKRAPGVPARFSGSLLGGKAALTISGAQPEDEADYYCALWYSNHWVFGGGTKLTVLHHHHHH
# notes: as for B2
# B5: 2018EP142-D09 (scFv, VH-VL orientation) (scFv)
# scFv: EVQLVESGAEVKKPGASVKVSCKASGYTFTSYYMHWVRQAPGQGLEWMGIINPSGGSTSYAQKFQGRVTITADESTSTAYMELSSLRSEDTAVYYCAREGGYKDFDYWGQGTLVTVSSGGGGSGGGGSGGGGSDIVMTQSPSSLSASVGDRVTVTCRASQSIDTYLNWYQQKPGKAPKLLIYTASTLQSGVPSRFSGSGSGTDFTLTISSLQPEDFATYYCQQSYSAPRTFGQGTKVEIK
# notes: Purified from E. coli periplasmic expression; also called EP142-D9; not shown: C-terminal flag and 6xHIS tag
# B6: 2018EP188-B10 (scFv, VH-VL orientation) (scFv)
# scFv: QVQLVQSGGGVVQPGKSLRLSCAASGFPFSSYTMHWVRQPPGEGLEWVALISYDGRNLYYADSVKGRFTISRDNSYNSLYLQLSGLRAEDTALYYCARDINRDHFYGMDLWGPGTTVTVSSGGGGSGGGGSGGGGSSYELTQPPSVSVAPGQTARIPCGGTNIGSKGVHWYQQKPGQAPVLVIYYDHSRPSGIPERFSGSNSGNTAALTISRVEAGDEADYYCQVWEGTSDHPVFGGGTKLTVL
# notes: Purified from E. coli periplasmic expression; not shown: C-terminal flag and 6xHIS tag
# How the values were obtained:
# [1] = target: endogenous CD19 expressed on cell surface (Daudi cells, Raji cells, DLBCL tissue) (UniProt P15391); assay: FACS on Raji cells, secondary reagent alone (background)
# [2] = target: T1, full-length human CD19 fused with flag …; assay: FACS on CD19/HEK293 cells, scFv titration, anti-His Alexa 488 detection
# Method: The diluted samples were incubated with CD19-expressing HEK293 cells (CD19/HEK293 cells) in 96 wells plate on ice for 1 hour. Cells were spun down at 1200 rpm for 5 minutes at 4° C. to remove unbound antibodies. Cells were then washed once with 200 μL of full medium per well. Samples were mixed with an Alexa fluor 488-conjugated anti-His antibody (secondary antibody, 100 μL, 1:1000 diluted) and incubated at 4° C. for 30 minutes in dark. Samples were then spun down at 1200 rpm for 5 minutes at 4° C. and washed twice with 200 uL of 1×PBS per well. The resultant samples were reconstituted in 200 uL of 1×PBS and read on Guava EasyCyte. Analysis was done by counting only Alexa Fluor 488-positive cells and then plotted in Prism 8.1 software.
# [3] = target: T1, full-length human CD19 fused with flag …; assay: FACS titration on CD19/HEK293 cells, anti-His Alexa Fluor 488, positive cell counts; 20 nM FMC63 IgG present as competitor
# Method: Purified anti-CD19 scFv antibodies were titrated from 100 nM with 2-fold serial dilution. […] Cells were spun down at 1200 rpm for 5 minutes at 4° C. Samples were mixed with an Alexa fluor 488-conjugated anti-His antibody (100 uL, 1:1000 diluted) and incubated at 4° C. for 30 minutes in the dark. The samples were spun down at 1200 rpm for 5 minutes at 4° C. and washed twice with 200 μL of 1×PBS per well. The resultant samples were then reconstituted in 200 uL of 1×PBS and read on Guava EasyCyte. Analysis was done by counting only Alexa Fluor 488-positive cells and then plotted in Prism 8.1 software.
# [4] = target: T3, CD3 on CD3+ Jurkat T cells (Homo sapiens (Human), UniProt P07766 23-207); assay: FACS on CD3+ Jurkat cells, anti-His biotin/streptavidin Alexa Fluor 647, positive cell counts
# T3 construct: also called CD3+ Jurkat cells
# T3 sequence (P07766 23-207 limits assumed): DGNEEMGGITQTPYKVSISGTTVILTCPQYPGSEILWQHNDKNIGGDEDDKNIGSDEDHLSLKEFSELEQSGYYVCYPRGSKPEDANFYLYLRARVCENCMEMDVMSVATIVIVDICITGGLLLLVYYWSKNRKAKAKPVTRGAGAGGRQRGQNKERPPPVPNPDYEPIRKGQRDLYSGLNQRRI
# Method: (§1) A solution containing 200 nM of purified anti-CD19/CD3 BiTE antibodies were serial diluted in full medium and incubated with Raji cells in 96 wells plate on ice for one hour. Cells were spun down at 1200 rpm for 5 minutes at 4° C. to remove primary antibodies. Cells were then washed once with 200 uL of full medium per well. Samples were detected with premixed anti-His Biotin Streptavidin Alexa fluor 647 by adding 100 uL of diluted secondary antibody and incubated at 4° C. for 30 minutes in the dark. Samples were spun down at 1200 rpm for 5 minutes at 4° C. and washed twice with 200 uL of 1×PBS per well. Reconstituted samples in 200 uL of 1× PBS and read on Attune NxT cytometer. Analysis was done by Attune NxT software plotting the overlay histogram of CD19 or CD3 binding with secondary antibodies.
# A similarly FACS assay was performed to examine the binding activity of the exemplary bispecific anti-CD19/anti-CD3 antibodies to CD3+ Jurkat T cells, following the descriptions above.
# [5] = target: T2, endogenous CD19 expressed on cell …; assay: FACS on CD19+ Raji cells, BiTE serially diluted from 200 nM; CD19+ Raji cells, FACS
# Method: as §1
# [6] = target: T4, human CD3ε/Fc (human, UniProt P07766 23-126, limits assumed); assay: ELISA, human CD3ε/Fc immobilised, BiTE serially diluted
# T4 construct: Immobilised on the ELISA plate at 2 ug/mL; not shown: Fc
# T4 sequence (P07766 23-126 limits assumed): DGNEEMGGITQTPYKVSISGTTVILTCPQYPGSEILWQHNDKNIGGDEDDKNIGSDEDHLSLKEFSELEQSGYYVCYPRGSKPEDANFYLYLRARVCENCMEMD
# Method: Further, an ELISA assay was developed to determine the EC50 of anti-CD19/CD3 BiTE antibodies. Briefly, 384 well plate was immobilized with human CD3ε/Fc at final concentration of 2 μg/mL in 1×PBS in total volume of 25 uL per well. The plate was incubated overnight at 4° C. followed by blocking with 80 uL of superblock per well for 1 hour. Anti-CD19/CD3 BiTE proteins were serial diluted, and 25 μL was added to CD3ε immobilized wells and incubated for 1 hour with shaking. The CD3ε binding was detected by adding 25 μL of anti-Flag HRP diluted at 1:5000 in 1×PBST. In between each step, the plate was washed 3 times with 1×PBST in a plate washer. The plate was then developed with 20 μL of TMB substrate for 5 mins and stopped by adding 20 μL of 2N sulfuric acid. The plate was read at OD450 nm Biotek plate reader and then plotted in Prism 8.1 software.
# [7] = target: T2, endogenous CD19 expressed on cell …; assay: FACS on Raji cells, anti-His biotin/streptavidin Alexa 647 detection
# Method: as §1
# [8] = target: T2, endogenous CD19 expressed on cell …; assay: FACS on CD19+ Raji cells, BiTE serially diluted from 200 nM
# Method: as §1
Molecule,EC50 [2] [nM],EC50 (read off the curve) [4] [nM],EC50 [6] [nM],% Raji cells stained positive [7] [%],also measured
secondary antibody control,,,,,% Raji cells stained positive [1]: 1.3%
B1,0.751,,,,EC50 (read off the curve) [3]: 1.6 to 3 nM
B2,,~0.8,5.57,~92.3,EC50 [5]: 0.766 nM
B3,,~4,7.58,~81.1,EC50 [8]: 3.81 nM
B4,,~0.8,3.17,~80,EC50 [8]: 0.846 nM
B5,7.18,,,,
B6,1.26,,,,
